Patent US20240409648A1 (Boehringer Ingelheim, published 2024)

B1: Mouse 81B4 (antibody 81B4) (antibody, V domains shown)
VH: QVQLQQPGADFVRPGASMRLSCKASGYSFTSSWIHWVKQRPGQGLEWIGEINPGNVRTNYNENFRNKATLTVDKSSTTAYMQLRSLTSADSAVYYCTVVFYGEPYFPYWGQGTLVTVSA
VL: QIVLTQSPAIMSASLGERVTMTCTASSSVSSSYFHWYQQKPGSSPKLWIYRTSNLASGVPGRFSGSGSGTSYSLTISSMEAEDAATYYCHQFHRSPLTFGAGTKLELK
B2: Mouse 33D10 (antibody 33D10) (antibody, V domains shown)
VH: QVQLQQSGTELLKPGASVKLSCKASGNTVTSYWMHWVKQRPGQGLEWIGEILPSTGRTNYNENFKGKAMLTVDKSSSTAYMQLSSLASEDSAVYYCTIVYFGNPWFAYWGQGTLVTVSA
VL: QIVLTQSPAIMSASLGERVTMTCTASSSVSSSYLHWYQKKPGSSPKLWVYSTSNLASGVPVRFSGSGSGTSYSLTISSMEAEDAATYYCHQHHRSPVTFGSGTKLEMK
B3: antibody 172C8 (antibody, V domains shown)
VH: EVQLQQSGPELVKPGASVKLSCKASGYTFTDNYMNWVRQSHGKSLEWIGRVNPSNGDTKYNQNFKGKATLTVDKSLSTAYMQLNGLTSEDSAVYYCGRTKNFYSSYSYDDAMDYWGQGTSVTVSS
VL: DIQMTQSPASQSASLGESVTFTCLASQTIGTWLAWYQQRPGKSPQLLIYAATSLADGVPSRFSGSGSGTQFSFNIRSLQAEDFASYYCQQVYTTPLTFGGGTKLEIK
B4: Mouse 73C5 (antibody 73C5) (antibody, V domains shown)
VH: QVQLKESGPGLVAPSQSLSITCTVSGFSLTNYAVHWVRQFPGKGLEWLGVIWSDGSTDFNAPFKSRLSINKDNSKSQVFFKMNSLQIDDTAIYYCARKGGYSGSWFAYWGQGTLVTVSA
VL: DIVMTQSQKFLSTSVGVRVSVTCKASQDVGTNVLWYQQKIGQSPKPLIYSASYRHSGVPDRFTGSGSGTDFTLIISNVQSEDLAEYFCQQYSRYPLTFGPGTKLELK
B5: Mouse 73F6 (antibody 73F6) (antibody, V domains shown)
VH: QVQLKESGPGLVAPSQSLSITCTVSGFSLTNYAVHWVRQFPGKGLEWLGVIWSDGSTDYNAPFKSRLSINKDNSKSQVFFKMNSLQTDDTAIYYCARKGGYSGSWFAYWGQGTLVTVSA
VL: DIVMTQSQKFLSTSVGVRVSVTCKASQDVGTNVLWYQQKIGQSPKALIYSASYRHSGVPDRFTGSGSGTDFTLIITNVQSEDLAEYFCQQYSRYPLTFGPGTKLELK
B6: antibody 76E10 (antibody, V domains shown)
VH: QVQLKESGPVLVAPSQSLSITCTVSGFSLTNYGVHWVRQPPGKGLEWLGVIWPVGSTNYNSALMSRLSIHKDNSKSQVFLRMNSLQTDDTAIYYCAKMDWDDFFDYWGQGTTLTVSS
VL: DIVMTQSQKFMSATVGGRVNITCKASQNVGRAVAWYQQKPGQSPKLLTHSASNRYTGVPDRFTGSGSGTDFTLTITNMQSEDLADYFCQQYSSYPLTFGAGTKLDLK
B7: Mouse 81A1 (antibody 81A1) (antibody, V domains shown)
VH: QVQLKESGPGLVAPSQSLFITCTVSGFSLSSYEINWVRQVPGKGLEWLGVIWTGITTNYNSALISRLSISKDNSKSLVFLKMNSLQTDDTAIYYCARGTGTGFYYAMDYWGQGTSVTVSS
VL: DIQMTQTTSSLSASLGDRVTISCRASQDIYKYLNWYQQKPDGTLKLLIYYTSGLHSGVPSRFSGSGSGTDFSLTISNLEPEDIATYFCQQDSKFPWTFGGDTKLEIK
B8: antibody 89A12 (antibody, V domains shown)
VH: EVQLQQSGAELVRPGASVRLSCTASGFNIKDDYIHWVRQRPKQGLEWLGRIDPANGNTKYDPRFQDKATITADTSSNTAYLHLSSLTSEDTAVYYCAKSFPDNYYSYDDAFAYWGQGTLVTVSA
VL: DIQMTQSPASQSASLGESVTFSCLASQTIGTWLGWYQQKPGKSPQLLIYRATSLADGVPSRFSGSGSGTNFSFKISSLQAEDLASYYCQQLYSGPYTFGGGTKLEIR
B9: antibody 67E7 (antibody, V domains shown)
VH: EVQLQQSGAEFVRPGASVKFSCTASGFNIKDDYIHWVRQRPEQGLEWVGRIDPANGNTKYAPKFQDKATITADTSSNTAYLQLSSLTSEDTAVYYCAKSFPNNYYSYDDAFAYWGQGTLVTVSA
VL: DIQMTQSPASQSASLGESVTFTCLASQTIGTWLGWYQQKPGKSPQLLIYRSTTLADGVPSRFSGSGSGTKFSFKISSLQAADFASYYCQQLYSAPYTFGGGTKLEIR
B10: Mouse 78C8 (antibody 78C8) (antibody, V domains shown)
VH: QVQLKESGPVLVAPSQSLSITCTVSGFSLTKFGVHWIRQTPGKGLEWLGVIWAGGPTNYNSALMSRLTISKDISQSQVFLRIDSLQTDDTAMYYCAKQIYYSTLVDYWGQGTSVTVSS
VL: DVLLTQTPLSLPVSLGDQASISCRSSQNIVHSNGNTYLQWYLQKPGQSPKLLIYKVSNRFSGVPDRFSGSGSGTDFTLKISRVEAEDLGVYYCFQGSHVPFTFGAGTKLELK

Target: cynomolgus IL-36R on BaF/3 cells (cynomolgus)
Assay: cell-based or functional assay

| Binder | IC90 pNFκB, trun-IL-36a, BaF/3 cynomolgus IL-36R cells [nM] | IC90 pNFκB, trun-IL-36b, BaF/3 cynomolgus IL-36R cells [nM] | IC90 pNFκB, trun-IL-36g, BaF/3 cynomolgus IL-36R cells [nM] |
| --- | --- | --- | --- |
| B1 | 2.4 | 3.5 | 5.1 |
| B2 | > 4000 | > 333 | > 333 |
| B3 | > 4000 | > 333 | > 333 |
| B4 | 0.2 | 1.6 | 1.5 |
| B5 | 0.5 | 0.7 | 0.8 |
| B6 | > 4000 | > 333 | > 333 |
| B7 | 0.6 | 0.9 | 1 |
| B8 | > 4000 | > 333 | > 333 |
| B9 | > 4000 | > 333 | > 333 |
| B10 | 1 | 2.1 | 1.5 |

Target: T1, human IL-36R on cells (HEK293 cells transfected with full-length human IL-36R); NCI/ADR-RES cells; human … (human, UniProt Q9HB29 20-575)
T1 sequence (looked up): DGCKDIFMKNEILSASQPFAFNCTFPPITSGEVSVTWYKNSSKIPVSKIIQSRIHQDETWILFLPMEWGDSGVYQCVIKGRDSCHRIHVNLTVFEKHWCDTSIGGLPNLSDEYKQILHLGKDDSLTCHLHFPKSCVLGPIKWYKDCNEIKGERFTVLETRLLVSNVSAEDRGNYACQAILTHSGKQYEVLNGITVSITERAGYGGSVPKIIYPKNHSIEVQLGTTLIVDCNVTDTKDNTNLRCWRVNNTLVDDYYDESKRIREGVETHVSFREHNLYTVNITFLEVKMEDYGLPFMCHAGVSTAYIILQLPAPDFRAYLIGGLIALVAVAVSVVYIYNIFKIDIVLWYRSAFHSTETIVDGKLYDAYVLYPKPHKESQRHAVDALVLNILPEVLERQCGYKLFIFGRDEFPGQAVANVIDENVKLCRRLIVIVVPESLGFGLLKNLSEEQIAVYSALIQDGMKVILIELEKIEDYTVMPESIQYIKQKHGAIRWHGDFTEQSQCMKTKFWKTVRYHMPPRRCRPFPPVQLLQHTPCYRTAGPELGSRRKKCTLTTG
Assay: cell-based or functional assay

| Binder | IC90 pNFκB, trun-IL-36g, human primary keratinocytes (NHK) [nM] |
| --- | --- |
| B1 | 0.5 |
